Data from the supplement of paper PMC7125110.
± gives the standard error. This sample holds only a part of the variants without activity.

B1: glmS ribozyme (parent)
chain: AUAAAAGCGCCAGAACUACAGAAAUGUAGUUGACGAGGAGGAGGUUUAUCGAAUUUUCGGCGGAUGCCUCCAAA

Legend:
Settings in all cases: with glucosamine-6-phosphate
glucosamine-6-phosphate [1] = variants of: B1; test: self-cleavage kobs at 160 uM GlcN6P; higher = faster cleavage; RNA array
Summary of the method: (§1)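 Glucosamine-6-phosphate, from 40 μM to 10 mM in HEPES/KCl/Mg(OAc)2 buffer, was flowed over sequenced MiSeq chips carrying barcoded ribozyme variants transcribed in situ by E. coli RNA polymerase. A hybridised Cy3 probe tracked the variants at 37 °C as tiles were imaged over ~14 h. kobs, kcat and KM were obtained by fitting normalised per-tile medians to exponential decays and then applying weighted Michaelis–Menten fits across concentrations.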

glucosamine-6-phosphate [2] = variants of: B1; test: self-cleavage kobs at 2500 uM GlcN6P; higher = faster cleavage; RNA array
Summary of the method: as §1

glucosamine-6-phosphate [3] = variants of: B1; test: self-cleavage kobs at 640 uM GlcN6P; higher = faster cleavage; RNA array
Summary of the method: as §1

glucosamine-6-phosphate [4] = variants of: B1; test: self-cleavage kobs at 10000 uM GlcN6P; higher = faster cleavage; RNA array
Summary of the method: as §1

Row | Variant | self-cleavage kobs at 160 uM GlcN6P (glucosamine-6-phosphate [1]) [s⁻¹] | self-cleavage kobs at 2500 uM GlcN6P (glucosamine-6-phosphate [2]) [s⁻¹] | self-cleavage kobs at 640 uM GlcN6P (glucosamine-6-phosphate [3]) [s⁻¹] | self-cleavage kobs at 10000 uM GlcN6P (glucosamine-6-phosphate [4]) [s⁻¹]
1 | AUAAAAGAGCCAAAACUACAGAAAUGUAGUUGACGAGGAGGAUGUUUAUCUAAUUUUCGGCGGAUGCCUCCAAA [C8A G13A G43U G51U] | < 1e-05 | < 1e-05 | – | –
2 | AUAAAAGCGCUAGAACUACAGAAAUGUAGUUGACGAGGAGGAGGUUUAUCGAAUUUUCGGAGGAUGGCUCCAAA [C11U C61A C67G] | 7.27e-05 ± 2.3e-05 | 7.14e-05 ± 3.3e-05 | 8.2e-05 ± 3.6e-05 | –
3 | AUAAAAACGCCAGAACUACAGAAAUGUAUUUGACGAGGAGGAGGUUUAUCGAAUUUUCGGCGGAUGCCUCCAAA [G7A G29U] | < 1e-05 | – | < 1e-05 | –
4 | AUAAAAGCGCCAGAACUACAGAAAUGUAGUUGACGAGGAGGAGGUUUAUCGAAUUUUCGGCGGGUUCCUUCAAA [A64G G66U C70U] | 0.000115 ± 2.1e-05 | 0.000872 ± 0.00017 | 0.000373 ± 9.3e-05 | –
5 | AUAAAAGCGCCAGACCUACAGAAAUGUAGUGGACGAGGAGGAGGUUUAUCGAAUUUUCGGCGGAUGCCGCCAAA [A15C U31G U69G] | 4.96e-05 ± 2e-05 | – | 0.000378 ± 9.2e-05 | –
6 | AUAAAAGCGCCAGGACUACAGAAAUGUAGUUGACGAGGAGGAGGUUUAUCGAAUUUUGGGCGGAUGCCACCAAA [A14G C58G U69A] | 3.98e-05 ± 2e-05 | 3.74e-05 ± 1.9e-05 | 8.05e-05 ± 3.6e-05 | –
7 | AUAAAAGCGCCAGAACUACAGAAAUGUAGUUGACGAGGAGGAUGUUUAUCGAAUUUUCUGCGGAUGCCUCCAAA [G43U G59U] | < 1e-05 | < 1e-05 | < 1e-05 | –
8 | AUAAAAGGGCCAGAACUACAGAAAUGUAGUUGACGAGGAGGAGGUUUAUCGAAUUUUCGGCGGAUACCUCCAAA [C8G G66A] | < 1e-05 | < 1e-05 | < 1e-05 | –
9 | AUAAAAGCGACACAAUUACAGAAAUGUAGUUGACGAGGAGGAGGUUUAUCCAAUUUUCGGCGGAUGCCUCCAAA [C10A G13C C16U G51C] | < 1e-05 | – | – | –
10 | AUAAAAGCGCCAGACCUACAGAAAUGUAGUUGACGAGGAGGAGGUUUAUCGAAUUUUCGGCGGAAGCCUCCAAA [A15C U65A] | 3.48e-05 ± 1.4e-05 | 0.000234 ± 5.7e-05 | 0.000177 ± 2.9e-05 | 0.000807 ± 0.00016
11 | AUAAAAGCGCCAGACCUACAGAAAUGUAGUUGACGAGGAGGAGGUUUAUGGAAUUUUCGGCGGAUUCCUCCAAA [A15C C50G G66U] | 5.42e-05 ± 1.8e-05 | – | – | –
12 | AUAAAAGCGACAUAGCUACAGAAAUGUAGUUGACGAGGAUGAGGUGUAUCGAAUUUUCGGCGGAUGCCUCCAAA [C10A G13U A15G G40U U46G] | < 1e-05 | < 1e-05 | < 1e-05 | –
13 | AUAAACGCGCCAGAACUACAGAAAUGUAGUUGACGAGCAGGAGGUUUAUCGAAUUUUCGGCGGAUGCCUCCAAA [A6C G38C] | < 1e-05 | – | < 1e-05 | –
14 | AUAAAAGCGCCAGAACUACAGAAAUGUAGUUGACGAGGAGCAACUUUAUCGAAUUUUCGGCGGAUGCUUCUAAA [G41C G43A G44C C68U C71U] | < 1e-05 | < 1e-05 | – | –
15 | AUAAAAGCGCCAAAACUACAGAAAUGUAGUUGACAAGGAGUAGGUUUAUCGAAUUUUCGGCGGAUGCUUCCAAA [G13A G35A G41U C68U] | < 1e-05 | < 1e-05 | < 1e-05 | –
16 | AUAAAAGCGCCAGAACUACAGAAAUGUAGUUGACGAGGACGAGGUUUAUCGAAUUUUCUGCGGAUGCCUCCAAA [G40C G59U] | < 1e-05 | < 1e-05 | < 1e-05 | –

Row | Variant | self-cleavage kobs at 160 uM GlcN6P (glucosamine-6-phosphate [1]) [s⁻¹] | self-cleavage kobs at 2500 uM GlcN6P (glucosamine-6-phosphate [2]) [s⁻¹] | self-cleavage kobs at 640 uM GlcN6P (glucosamine-6-phosphate [3]) [s⁻¹] | self-cleavage kobs at 10000 uM GlcN6P (glucosamine-6-phosphate [4]) [s⁻¹]
17 | AUAAAAGCGCCAGAACUACAGAAAUGUAGUUGACGAGGAAGAGGUUUAUCCAAUUUUCGGCGGAUGCCUCCAAA [G40A G51C] | < 1e-05 | – | < 1e-05 | < 1e-05
18 | AUAAAAGCGCCAGAACUACAGAAAUGUAGUUGACGCGGAGGAGGUUUAUCGAAUUAUCGGCGGAUGCCUCCAAA [A36C U56A] | < 1e-05 | < 1e-05 | < 1e-05 | –
19 | AUAAAAGCGCCAGUACUACAGAAAUGUAAUUGACGAGGAGGAGGUUUAUCGAAUUUUCGGCGUAUGCCUCCAAA [A14U G29A G63U] | < 1e-05 | < 1e-05 | – | –
20 | AUAAAAGCGCCAUAACUACAGAAAUGUAGUAGAAGAGGAGGAGGUUUCUCGAAUUUUCGGCUGAUGCCUCCAAA [G13U U31A C34A A48C G62U] | < 1e-05 | – | – | –
21 | AUAAAAGCGCCAGACCUACAGAAAUGUAGUUGACUAGGAGGAGGUUUAUCGAAUUUUCGGCGGAUGCCUUCAAA [A15C G35U C70U] | < 1e-05 | – | – | –
22 | AUAAAAGCGCCUGCACUACAGAAAUGUAGUUGACGAGGAGGAGGUUUAUCGAAUUUUCGGCGGAUGCCUCUAAA [A12U A14C C71U] | 0.000143 ± 4.4e-05 | 0.00169 ± 0.00033 | – | –
23 | AUAAAAGCGCCAGAUCUACAGAAAUGUAGUUUACGGGGAGGAUGUUUAUCGAAUUUUCGGCGGAAGUCUCCAAA [A15U G32U A36G G43U U65A C67U] | < 1e-05 | – | < 1e-05 | –
24 | AUAAAAGGUCCAGAACUACAGAAAUGUACUUCACGAGGAGGAGGUUUAUCGCAUUUUCGGCGGAUGCCUCCAAA [C8G G9U G29C G32C A52C] | < 1e-05 | < 1e-05 | – | –
25 | AUAAAAGCGCCAGCACUACAGAAAUGUAGGUGACGAGGAGCAGGUUUAUCGAGUUUUCGGCGGAUGCCUCCAAA [A14C U30G G41C A53G] | < 1e-05 | < 1e-05 | – | –
26 | AUAAAUGCGCCCGAACUACAGAAAUGUAGUUGACGAGGAGGAGGUUUACCGAAUUUUCGGCGGAGGGCUCCAAA [A6U A12C U49C U65G C67G] | < 1e-05 | – | – | –
27 | AUAAAAGCGCCAGAACUACAGAAAUGUAGUUGACGAGGACGAGGUUUAUCGAAUUAUCGGCGGAUGCCUCCAAA [G40C U56A] | 0.000154 ± 3.3e-05 | 0.00115 ± 0.00026 | 0.000308 ± 6.3e-05 | –
28 | AUAAAAGCGACAGAACUACAGAAAUGUAGAUGACGAGGAGGAGGUUUAUCGAAUUUUCGGCGGAUGCCUCCAAA [C10A U30A] | < 1e-05 | < 1e-05 | < 1e-05 | < 1e-05
29 | AUAAAAGCGCGAGAACUACAGAAAUGUAGUUGACAAGGAGGAGGUUUAUCGAAUUUUGGGCGGAUGCCUCCAAA [C11G G35A C58G] | < 1e-05 | < 1e-05 | < 1e-05 | –
30 | AUAAAAGAGCCAGAAUUACAGAAAUGUAUUUGACGAGGAGGAGGUUUAUCGAAUUUUCGGCAGAUGCCUCCAAA [C8A C16U G29U G62A] | < 1e-05 | – | < 1e-05 | –
31 | AUAAAAGCGCUAGAACUACAGAAAUGUAGUUGACGAGGAGGAGGUUUAUCGAAUUAUCGGCGGAUACCUCCAAA [C11U U56A G66A] | 4.3e-05 ± 1.4e-05 | 0.000197 ± 4.1e-05 | 8.42e-05 ± 1.7e-05 | –
32 | AUAAAAUCGCCAGAACUACAGAAAUGUAGUUGACGUGGAGGAGGUUUAUCGAAUUUUCGGCGGAUGCCUCAAAA [G7U A36U C71A] | < 1e-05 | – | – | –
